From a protein production outcome set (Wang et al. 2014)

Test: label from the status in PepcDB records

Sequence | protein production
MGALAAAMFDLRSRRENPGPESDPRKGRDRQRPSDARETKEDLKSQPDLRQVKEKVRNDEIAIQSESLVEYKERNQRRDDVLQVPELYDVLLPKLRVRIVFGSSFKPRKSTGRQWSMTQSWLKIKMNTNENEV | failed
MEVAVEKAVAAAAAASAAASGGPSAAPSGENEAESRQGPDSERGGEAARLNLLDTCAVCHQNIQSRAPKLLPCLHSFCQRCLPAPQRYLMLPAPMLGSAETPPPVPAPGSPVSGSSPFATQVGVIRCPVCSQECAERHIIDNFFVKDTTEVPSSTVEKSNQVCTSCEDNAEANGFCVECVEWLCKTCIRAHQRVKFTKDHTVRQKEEVSPEAVGVTSQRPVFCPFHKKEQLKLYCETCDKLTCRDCQLLEHKEHRYQFIEEAFQNQKVIIDTLITKLMEKTKYIKFTGNQIQNRIIEVNQNQKQVEQDIKVAIFTLMVEINKKGKALLHQLESLAKDHRMKLMQQQQEVAGLSKQLEHVMHFSKWAVSSGSSTALLYSKRLITYRLRHLLRARCDASPVTNNTIQFHCDPSFWAQNIINLGSLVIEDKESQPQMPKQNPVVEQNSQPPSGLSSNQLSKFPTQISLAQLRLQHMQQQVMAQRQQVQRRPAPVGLPNPRMQGPIQQPSISHQQPPPRLINFQNHSPKPNGPVLPPHPQQLRYPPNQNIPRQAIKPNPLQMAFLAQQAIKQWQISSGQGTPSTTNSTSSTPSSPTITSAAGYDGKAFGSPMIDLSSPVGGSYNLPSLPDIDCSSTIMLDNIVRKDTNIDHGQPRPPSNRTVQSPNSSVPSPGLAGPVTMTSVHPPIRSPSASSVGSRGSSGSSSKPAGADSTHKVPVVMLEPIRIKQENSGPPENYDFPVVIVKQESDEESRPQNANYPRSILTSLLLNSSQSSTSEETVLRSDAPDSTGDQPGLHQDNSSNGKSEWLDPSQKSPLHVGETRKEDDPNEDWCAVCQNGGELLCCEKCPKVFHLSCHVPTLTNFPSGEWICTFCRDLSKPEVEYDCDAPSHNSEKKKTEGLVKLTPIDKRKCERLLLFLYCHEMSLAFQDPVPLTVPDYYKIIKNPMDLSTIKKRLQEDYSMYSKPEDFVADFRLIFQNCAEFNEPDSEVANAGIKLENYFEELLKNLYPEKRFPKPEFRNESEDNKFSDDSDDDFVQPRKKRLKSIEERQLLK | not failed
MKQFVVISGKGGTGKTSVTAGLAAVGKDMVLADCDVDAADLHLVLAPEIRERHDFISGVVASIEPEACISCGLCTTHCRYGAIPQGYAPQVAPEHCEGCGVCAHVCPTGAARLSDRRCGEWYVSDTRFGPMVHAALGIGEENSGKLVSTVRTRARELAEARDASVVLIDGSPGVGCPVIASLAGADAALAVTEPTVSALHDLERVHALARHFDVRMAVLLNKADIHPGMAERIIGYCTTHDLPLVGRFGFSPLFVQAQLEGRTLPEQDSGEWRQRFNGVWNQLLALVLEHHHHHH | failed
MAKQDVIELEGTVLDTLPNAMFKVELENGHEILAHVSGKIRMNYIRILPGDKVTVEMSPYDLTRGRITYRYK | failed
DTPEPYSEQDLWDWLRNSTDLQEPRPRAKRRPIVKTGKFKKMFGWGDFHSNIKTVKLNLLITGKIVDHGNGTFSVYFRHNSTGQGNVSVSLVPPTKIVEFDLAQQTVIDAKDSKSFNCRIEYEKVDKATKNTLCNYDPSKTCYQEQTQSHVSWLCSKPFKVICIYISFYSTDYKLVQKVCPDYNYHSDTPYFPSG | failed
MSERKINDEPKSMLLLQRGEEFGKVNNGSKNRAFSSFTKFKIPSQFKTNSSITSFSNRREDIREPNSNSLFSMYNNDVLLKYDTTEVALATTNMFTHTVWNNKSEEIISYGYGSHVSFSCFIGFHY | failed
MKNQFVKCISQLLFLLLIIGVLPVYAQKKSKEKIYRLPDDLETLAGDPALLKKPEGLTVAAYAFPNYHASALHNKIYSQGWTEYNLIRSARPWFEGHQQPRTPLLGELDESKPSTWETYNKLCKQSGIDVLIWDWYWYDGKPCLHEALENGFLEASNTKDVKFACMWTNHPWYVLYPTKRTDGSNAYPPSFDAPDFSKEECWKSLSYMISRYCHLENYWRIDDKPVICIWDARRLESKLGIAGVKQLFAELTDYAKKLGHKGLHFHVTGFSCGNMKEEGYDTVGSYNPMDWIAGRFQPKEIELPDYGTVAADVAFKLWDEHHGQFDIPYVPAVAPGWDSTPRYIAPANRPAKADRSQWPGCTIFKNENPASFKAFVQSSFVYLNKHPEVPRILTIACFNEWSEGHYLLPDNRFGYGMLDALGEALGKEGNHEKHGKLEHHHHHH | not failed
MFVDRIVLSFRGAGLERANTCLRKGQRLRKACSHVFRPLCSSDLPVNLPTDLETKRVMKPPLAERESIWSYPRPPRVEPNTRHLRVVHNQVTIAETRRGYRVLEYSHPPSYYIPLDDIDLQYVMVSSKVRSTFCEFKGEATYYDVEVGWEVSEGAAWSYDFPTRAYRMLKDHIAFYPAKVDACWVDEYRVRPEPRSFYGGWVTPLVKGVYPEEDVEDDEDSSGGDGKDSATQ | not failed
EPEKLGQALTEVYAKANSFTVSSVAAPSWLHRFIIGKKGQNLAKITQQMPKVHIEFTEGEDKITLEGPTEDVSVAQEQIEGMVKDLINR | not failed
MTVPHPESVGEPGIAVRAPARRRSAWHGQAPVVAVVALGGGIGGTARYAAALLWPTQSGGFPWTTFWVNVVGCAVIGVFMVVITDVWPAHRLVRPFFGTGVLGGFTTFSTYAVDIQKLVDAGHPRTALAYLAATLLAALAAVRLAATAARRVLVRRRR | failed
FMPTEKDVKTLQLTMKEYEAKDDWQLYLWKENEDFVGIMGIVKKENQVLEIQHLSVNPSHRHVGIGTKMVQELKSKFLEFTICGNEQTASFCEKC | failed
MSINDVAKLFGSAWIVMMADVDAASILTGVADGQTYGYRLIILLLVLTLPLYIVQEAAGRVGAVNNGKGLGTLLREKFSQKFALTAAIPMFLVDLFTYVVEYVGIAVGSLMIGVPVYISLPLFFVIHLSIVLTRTYEKMEKTLLGISFFLVIAFIVQAFLRGVSPNQQLLYFSASKSFLFFLAANIGAVVMPFMIFYQASATAYKYNNSALSKDVKVKWSSMETFIGALVSELLMVAIEISTTGLSSSIDPLNYREMSYALSAISGIYSPYVFGIGLICGGLLALIVESLGSAWGTLEALNKHNHRNTTLLYVFESVPAIIIASIFSQNYDQIVNTVLSLMSVTPIIVFIPAFFVGLLVGDEKIMGKYSYSRRRMVIYWITVVILLISGIMSLL | failed
MGSSLPFDLILEILQRTPAESLLRFKSTCKKWYELISNDKRFMYKHLDKSTKRFLRIENRERVQILDPVTEILAVSTIPNELRHKYFTLIHCDGLMLGMCYEELGSDPNLAVWNPVMRKIKWIKPSPPLVCYWGSDYLGFGYDKTFRDNYKILRFTYLGDDDDDESYPKCQIYEFNSGSWRSIEAKFDGEIDVEVDGVSVNGSMYWIELQEKKNFILSFDFSKETFNRICDSPLYWDIKRLGCFNGDRLSLLQQNEATREIHVSVTNKLSDEVVSFSRYFSVTLPDIPLFRSIDILPLPGCFIGKNRNIIAWCEQLVGKYDDHTSIILYEIGEGGVTKRIRTGRHEADEDYNDLDNCSYVYVPSLIPVPE | failed
MSNVRVLATDLAFPEGPVVMPDGSVVLVEIRAQQLTRVWPDGRKEVVAKVPGGPNGAALGPDGKMYICNNGGFGWFPSRGTMMPGAPAPHEYIGGSIQRVDLQSGEVETLFDKCGEHPLKGPNDLVFDKHGGLWFTDLGKRRARDMDVGAAYYIKPGMTEITEQVFGTLPLNGIGLSPDEATMYAAETPTGRLWAFDLSGPGEVKPRDVIYRGEKGKPICGLGGYQMFDSLAVEASGNVCVATLVSGCISVIAPDGTLVEQVPTGDRVTTNIAFGGPDLKTAYITLSGKGELIAMDWSRPGLPLNFLNKLEHHHHHH | failed
MSRLSAAVVAIDGPAGTGKSSVSRRLARELGARFLDTGAMYRIVTLAVLRAGADPSDIAAVETIASTVQMSLGYDPDGDSCYLAGEDVSVEIRGDAVTRAVSAVSSVPAVRTRLVELQRTMAEGPGSIVVEGRDIGTVVFPDAPVKIFLTASAETRARRRNAQNVAAGLADDYDGVLADVRRRDHLDSTRAVSPLQAAGDAVIVDTSDMTEAEVVAHLLELVTRRSEAVR | not failed
MPSLGEAPQDLQRSQERRRIERIFAQGGKGVASPHRFPGPLPMLQNIPTHVIAGPLGAGKTSLIRHLLSQRPAAERWAVLINEFGQIGLDAALLTRDEDGIALGEVAGGCLCCVNGAPFQVGLGRLLRKARPDRLLIEPSGLGHPAQLLKQLNEAPWKGVLAVQPCVLVLDAQALAAGKPLPRAQQDALSSAGLLVLNKDELLSDSDRLRVLEQLPDLPLFWTRHAALPLAELPGLGASAEAALEQSDIPQGLAQLPAVWSDPTLPICLSQSQEDGWSIGWRWHPSQQFDLVRVEHWLQNLDWRRAKLVLHSDQGWRSGNGLDNSPLNWLPSEWRRDSRLELIFSSPQDIAVLQASLDACRLLEHHHHHH | failed
MNLASIIGWGVGFGAILISMAFTPTGLGVFWDLSSVFITVVGSFSALMASSEVVAVKKIPTYLGFFFRRNSYAKVSIIKILVELSEKARKEGLLSLDDELEQINDPFFKSGMRLVVDGADPEVIRTMLYLELDQMQERHKVGSDLFKTWAKLAPAFGMTGTLIGLVALLGNLEDKSALGSSMAVALITTLYGTIMANLMFTPVQLKLEKIDTEEAAVKTMIIEGVLSIQSGDNPRILEQKLMTFLTPKDRSQLNSSIGGE | failed
MITQVNQLDELQLKDLKTLRAECKKNDGSIPNLYIHILKQHRSLPTSFLYYQNGALIGFLSIYFFYDDAVEVAVLVSPQYRRQGIAKQLIKEALPLIKSQNYFNLIFSCPSRLNDNWLTSKGFTYLHSEYFMERDDLNPILDYIR | not failed
MRNLKLRYCKELNAVAHPQHLLLQPELNGGASDIYFVVADNKIYAVQESGDVRLKVIADLPDIVGVEFLQLDNAICVASGAGEVILVDPQTGATSEGTFCDVGIESMAWSPNQEVVAFVTRTHNVVLMTSTFDVIAEQPLDAELDPDQQFVNVGWGKKETQFHGSEGKQAAKQKESDSTFIRDEQELNQDVSISWRGDGEFFVVSYVAAQLGRTFKVYDSEGKLNHTAEKSANLKDSVVWRPTGNWIAVPQQFPNKSTIALFEKNGLRHRELVLPFDLQEEPVVQLRWSEDSDILAIRTCAKEEQRVYLYTIGNYHWYLKQVLIFEQADPLALLHWDTRCGAEHTLHVLKESGKHLVYRWAFAVDRNNSIVGVIDGKRLLLTDFDEAIVPPPMSKIVLKFETYINAFISHGTSLWVYTCDRKIYLNEHIHTLGKELQKPIMLMPDAELSGLHLANLTHFSPHYLLATHSSAGSTRLLLLSYKDNDNKPGEWFYRVHSSVRINGLVNAVAVAPYAMNEFYVQTVNNGHTYEVSLKADKTLKVERSYVQLHEPADQIDWVIVKGCIWDGYTGALVTLRNQHLLHIDGYRIGEDVTSFCVVTNYLVYTQLNAMHFVQLDDRRQVASRNIERGAKIVTAVARKARVVLQLPRGNLEAICPRVLVLELVGDLLERGKYQKAIEMSRKQRINLNIIFDHDVKRFVSSVGAFLNDINEPQWLCLFLSELQNEDFTKGMYSSNYDASKQTYPSDYRVDQKVEYVCRLLEQQMNRFVSRFRLPLITAYVKLGCLEMALQVIWKEQQEDASLADQLLQHLLYLVDVNDLYNVALGTYDFGLVLFVAQKSQKDPKEFLPYLNDLKALPIDYRKFRIDDHLKRYTSALSHLAACGEQHYEEALEYIRKHGLYTDGLAFYREHIEFQKNIYVAYADHLRAIAKLDNASLMYERGGQLQQALLSAKHTLDWQRVLVLAKKLSEPLDQVAQSLVGPLQQQGRHMEAYELVKEHCQDRKRQFDVLLEGHLYSRAIYEAGLEDDDVSEKIAPALLAYGVQLESSLQADLQLFLDYKQRLLDIRRNQAKSGEGYIDTDVNLKEVDLLSDTTSLHSSQYSGTSRRTGKTFRSSKNRRKHERKLFSLKPGNPFEDIALIDALHNHVTKIAQQQQPVRDTCKALLQLANAADADPLAAALQREFKTLLQAVDAALDEIWTPELRGNGLMADHLTGPNVDYLALQKEQRYALLSPLKRFKPQLIMMDWQHEILQ | failed
